Assays:
[1] = biological target: Schizosaccharomyces japonicus Yop1, full length, with a C-terminal SBP tag (Schizosaccharomyces japonicus) (UniProt B6K529); assay: SEC-MALS; in the detergent DDM; 20 mM Tris/HCl pH 7.5, 100 mM NaCl, 0.03% DDM; protein 0.2-1 mg/ml; protein conjugate model
[2] = biological target: Yop1F65Bpa (S. japonicus Yop1 with the photoreactive probe Bpa at F65 in TM2) (Schizosaccharomyces japonicus) (UniProt B6K529); assay: cross-linking + SEC; Yop1F65Bpa irradiated in liposomes, then membranes solubilized in DDM and run on SEC
[3] = biological target: Yop1F65Bpa (S. japonicus Yop1 with the photoreactive probe Bpa at F65 in TM2) (Schizosaccharomyces japonicus) (UniProt B6K529); assay: cross-linking; photo-cross-linking through Bpa; purified protein reconstituted into liposomes of S. cerevisiae lipid extract at a protein:lipid molar ratio of 1:200; UV for 30 min on an ice-cold block; SDS-PAGE and Coomassie-blue staining

Substance: Schizosaccharomyces japonicus Yop1, full length, with a C-terminal SBP tag (from UniProt B6K529 1-191) (natural protein)
- stoichiometry N [1]: 2

Substance: Yop1F65Bpa (S. japonicus Yop1 with the photoreactive probe Bpa at F65 in TM2) (from UniProt B6K529 1-191) (natural protein)
- stoichiometry N [2]: 2
- percent of monomers cross-linked into dimers [3]: > 75%

— article PMC7835363
